assay: yeast display, Sf9 membrane polyspecificity reagent, FACS + sequencing; frameworks hold sequencing errors
Outline: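 Galactose-induced (36–48 hours) yeast carrying a synthetic nanobody display library were exposed to 10% biotinylated, detergent-solubilized Sf9 membrane reagent at 4 °C for 1 hour. FACS followed streptavidin microbead enrichment, using low and high (top ~1%) gates for expression (anti-HA) and reagent binding (streptavidin). Colony PCR, MiSeq 2 × 250 sequencing and CDR-length filtering followed. Labels for polyreactivity reflect the gate of origin.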

Row | Sequence | polyreactivity (PSR sort gate)
1 | QVQLVVSGGGLVQAGGSLSLSWDASGRTFARYTMGWYRQAPGKERELVASITRGGSPYYADSVKGRFTISRDNAKNYVYLQMNSLKAEDSSVFYCAARFPQHNYWAMDYCGQGTQVTVSS | high polyreactivity
2 | QVQLVESGGGLVQAGGSLRLSCAASGSTFRYNDMGWYIQAPGKERELVDAITRSDSTNYADSVKGRFTISRDNAKNTVYLQMNSLKPEDTAVYYCAARRHYTYGNGPSRGGQMDYWGQGTQVTVSS | high polyreactivity
3 | QVQLHESGGGLVQAGGSLRLSCAASGTISVTYNMAWYRQAPGKEREFVAGNSTGATTNYADSVKGRFTISRDNAKNTVYLQMNSLKPEDTAVYYCAAHIYRQDHFYYWGQGTQVTVSS | low polyreactivity
4 | QVQLVESGGGLVQAGGSLRLSCAASGSTFRVYAMGWYRQAPRKERELVAAISKSGVSTYYADSVKGRFTISRDNAMNTVYLQMNSLKPEDTAVYYCPVFLGYSRKYDYWGQGTQVTVSS | high polyreactivity
5 | QVQLVESGGGIVQAGGSLRFSCAASGFTFWKYTRGWYRQAPGKERELVAAINGGGGDTYADSVKGRFTISRDNAKNTVYLQMNSLKPEDTAVYYCAARYGTGTTWVQPTEMDYWGQGTQVTVSL | low polyreactivity
6 | QVQLVESGGGLVQAGGSLRLSSAASGSIFRRYALGWYRQEPGKESELVAAISRSAGSTYYADSVKGRFTISRDNAKNTVYLQMNSLKPEETAVYYCKTDPSRSPGDVVSASVIKRDYWGQGTQVTVSS | low polyreactivity
7 | QVQLVESGGGLVQAGGSLLLSCAASGSIFYYYAMGWYRQAPGKERELVAAISKSGGSTYADSVKGRFTISRDNAKNTVYLQMNSLKPEDTAVYYCAKEFKYWGYPYDYWGQGTQVTVSS | low polyreactivity
8 | QDQLVESGGGLVQAGGSLRLSGAASGRIFRTNAMGWSRQAPGKERELVAAISDSGADTSYADSVKGRFTISRDNAKQSVYLQMNSLKPEDTAVYYCNRGRVSYRYLKDYDYWGQGTQVTVSS | low polyreactivity
9 | QVQLVESGGGLVQAGGSLRLSCAASGRIFDHYTLGWYRQAPGKERDFVAAISSSGGSTYYADSVKGRFTSSRDTAKNTVYLQLNSLKPEDTAVYDCAAVYHRLWGYDYWGQGPQVTVSS | high polyreactivity
10 | QDQLVESGGGLVQAGGSLRLSCAASGFTFARNGMGWYRQAPVKEREFVAAITRSGGRTYYADSVKGRFTISRDNAKNTVYLQMNSLKPQDTAVYYCAAATSYGKSEYDYWGQGTQVTVSS | high polyreactivity
11 | QVQLVESGGGLVQAGGSLRLSCAASGIIFWDYAMGWYRQAPGKEREFVAAINTSGGTTTYADSVKGRFTISRDNAKNTVYLQMNSLKPEDTAVYNCAADPWGYYSYAYYYWGQGTQVTVSS | low polyreactivity
12 | QVQLVESGGGLVQAGGSLRLSCAASGSTFPYYTMGWYRQAPGKERELVAAICGRGTSTYYADSVKGRFTISRDNAKNTVYLQMISLKPEDTAVYYCAARRADVQPYSPVYAYGAYDYWGQGTQVTVSS | high polyreactivity
13 | QVQLVESGGGLVQPGGSLRLSCAASGFTFRGYDMGWYRQAPGTERELVAGITWGDDSTYYADSVKGRFTISRDNAKNTVYLQMNSLKPEDTAVYYCATYFRVYYSQYDYWGEGTQVTVSS | high polyreactivity
14 | QVQLVESGGGLVQAGGSLRLSCAASGSTFVIYAMGWYRQAPGKERELVAAIRLGGGSTYYADSVKGRFTISRDNANNTVYLQMNSLKPEDTAVYYCAAEVDQWYYRGYDYWGQGTQVTVSS | high polyreactivity
15 | QVQLVESGGGLVQAGGSLRLSCAASGSIFSSYTMGWYRQAPGKERELVAAISSTGSTYYADSVKGRFTISRDNAKNTVYLQMNSLKPEDTAVYYCAARGWYWQQYKGHTRYDYWGQGTQVTVSS | high polyreactivity
16 | QVQLVESGGGLVQAGGSLRLSCAASGRTFGWYAMGWYRQAPGKERELVAAISTRGTRTYYADSVKGRFTISRDNAKNTVYLQMNSLKPEDTAVYYCNAKRRAVTTAHGIPEEDYWGQGTQVTVSS | high polyreactivity
17 | QVQLVESGGGLVQAGGSLRLSCAASGFTFNRYAMGWYRQAPGKERELVAAISWSGTSTYYADSVKGRFTISRDNAKNTVYLQMNSLKPEDTAVYYCAARVKGQWNTYDYWGQGTQVTVSS | high polyreactivity
18 | QVQLVESGGGLVQAGGSLRLSCAASGGISTAYTMGWYRQAPGKERELVADITRSGGRTYYADSVKGRFTISRDNAKNTVYLQMNSLKPEDTAVYYCARTYYYRFNYWGQGTQVTVSS | high polyreactivity
19 | QVQLVESGGGLVQAGGSLRLSCAASGSTFRSYAMGWYRQAHGKERELVAAITSGGSTYYADSVKGRFTISRDNAKNTVYLQMNSLKPEDTAVYYCNARRRTRNVPGKRLRGGIYVYWGQGTQVTVSS | high polyreactivity
20 | QVQLVESGGGLVQAGGSLRLSCAASGRIFNSNTMGWYRQAPGKERELVAAITYSGGSTYYADSVKGRFSISRDNAKNTVYLQMNSLKPEDTAVYYCAASYYYGRRYDYWGQGTQVTVSS | low polyreactivity

Row | Sequence | polyreactivity (PSR sort gate)
21 | QVQLVESGGGLVQAGGSLRLSCAASGRTLVVYAMGWYRQAPGKERELVADINWSGGRTYYADSVKGRFTISRDNAKNTVYLQMNSLKPEDTAVYYWAADLSWRQYYREYDYWGQGTQVSVSS | high polyreactivity
22 | QVQLVESGGGLVQAGGSLRLSCAGSGSTFRYNAMGWYRQAPGKERELVAAISQRGGSTYYADSVKGRFTISRDNANNTVYLQMNSLKPEDTAVYYCPGDYWGQGTQVTVSS | high polyreactivity
23 | QVQLVESGGGLVQAGGSLRLSCAASGFTFTRNVMGWYRQAPGKERELVAAINASGGRTYYADSVKGRFTISRDNAKNTVYLQMNSLKPEDTAVYYCAARDTQLGGSRGGSWGQGTQVTVSS | high polyreactivity
24 | QVQLVESGGGLVQAGGILSLSCAASGFIFLYNMGWYRQAPGKEWQLVADISTGVSTNYADSVKGRFTISRDNAKNSVYLQMNSLKPEDTAVYYCAAVYYNGYQYEPWYDYWGQGTQVTVSS | low polyreactivity
25 | QVQLVESGGGLVQAGGSLRLSCAASGRIFVRYAMGWYRQAPGKERELVAAISKGGSSTYYADSVKGRFTISRDNAKNTVYLQMNSLKPEDTAVYYCAARVHGTGTLKYPNYYWGQGTQVTVSS | high polyreactivity
26 | QVQLVESGGGLVHAGGSLRLSCAASGSNFNINAMGWYRQAPGKERELVAAITTSGGRTYYSDSVKGRFTISRDNAKNTVYLQMNSLKPEDTAVYYCNARHLPGSRSWRWITYDYWGQGTQVTVSS | low polyreactivity
27 | QVQLVESGGGLVQAGGSLRLSCAASGRIIDFYTMGWYRQAPGKERELVAGINGSGASTYYADSVKGRFTISRDNAKNTVYLQMNCLKPEDTAVYYCAKDPGYYDDYDYWGQGTQVTVSS | low polyreactivity
28 | QVQLVESGGGLVQAGGSLRLSCAASGSIFKKYAMGWYRQAPGKERELVAAIRSSGGSTYYADSVKGRFTISRDNAKNTVYLQMNSLKPEDTAVYYCAAYVPQGYKLYYWGQGTQVSVSS | high polyreactivity
29 | QVQLVESGGGLVQAGGSLRLSCAASGFIFYSYALGWYRQAPGKEREFVASISGRTGSTYYADSVKGRFTISRDNAKNTVYLQMNSLKPEDTAVYYCNARIVHSFRYDYWGQGTQVTVSS | low polyreactivity
30 | QVQLVESGGGLVQAGGSLRLSCAASGSIFARNAMGWYRQAPGKERELVASITWSGASTYYADSVKGRFTISRDNAKNTVYLQMNSLKPADTSFYYSAATDQNLSLDYSSYEYRGQGTQVTVSS | low polyreactivity
31 | QVQLVESGGGLVHAGGILRLSCAASGSTFTPNAMGWYRQAPGKEREFVAAITYSGGTTYNADSVKGRFTISRDNAKKTVYLQRNRLKPEDTAVYYCAAVYFLLYYEAYYYWGQGTQVNVSS | low polyreactivity
32 | QVQLVESGGGLVQAGGSLRLSCAASGLTFSVYAMGWYREAPGKERELVAGITSSVGDTYYADSVKGRFTISRDNAKNTVYLQMNSLKPEDTAVYYCNAKYRTFVSKHDYWGQGTQLTVSS | low polyreactivity
33 | QVQHVESGGGLVQAGGSLRLSCAASGRTFQWYTLGWYRQAPGKERELVAAISWSGTSTYYADSVKGRFTISRDNEKNTVYLLMNSLKPEDTAVYYCAAKTYPSLFFHYGYWGQGTQVTVSS | low polyreactivity
34 | QVQLVESGGGLVQAGGSLRLSCAASGFTFIYYTMGWYRQAPGKEREFVAAISWGGSTYYADSVKGRFTISRDNAKITVYLLMNSLKPEDTAVYYCNAVSAVAYTRFVYWGQGTQVTVSS | high polyreactivity
35 | QVQLVESGGGLVQAGGSLRLSSAASGITFGLYAMGWYRQPPGKERELVADITWSGGSTYYADSVKGRFTISRDNAKNTVYFQMNRLKPEDTAVYYCNADLYADESLFWFALYDYWGQGTQVTVSS | low polyreactivity
36 | QVQLVESGGGIVPAGGSLRLSCAASGRSFYNYAMGWYRQAPGKERELVASISGIGGTTYYADSVKGRFTISRDNAKNTVYFQMNSLKPEDTAVYYCAARLYNWRRYGYWGQRTQVTVSS | high polyreactivity
37 | QVQLVESGGGLVQAGGSLRLSCAASGSTFGFYDMGWYRQAPGKERELVAAITSGDITYADSVKGRFTISRDNAKNTVYLQMNSLKPEDTAVYYCATTSYGYWFGYIPEVDYWGQGTQVTVSS | low polyreactivity
38 | QVQLVESGGGLVQAGGSLRLSCAASGRIFHANAMGWYRQAPGKERELVAGISRNGGRTYYADSVKGRFTISRDNAKNTVYLQMNSLKPEDTAVYYCAARVWGSSQYYYWGQGTQVTVSS | high polyreactivity
39 | QVQLVESGGGLVQAGGSLRLICAASGRIFGRYTMGWYRQAPGKETELVAGITYSGGSTYYADSVKGRFTISRDNAKNTVYLQMNSLKPEDTAVYYCAARWRGSGGFDYWGQGTQVTVSS | high polyreactivity
40 | QVQLVESGGGLVQAGGSLRLSCAASGRIFGGYAMGWYRQAPGKERELVAAISSRGGSTYYADSVKGRFTISRDNAKNTVYLQMNSLNPEDTAVYYCARTKYGRYRYGEYDYWGQGTQVTVSS | high polyreactivity

From the nanobody polyreactivity screen of Harvey et al. (2022)
